Experimental data taken from US20240189443A1, “PD-L1 AND TLR7 DOUBLE-TARGETING NANOBODY COUPLING DRUG AND USE THEREOF IN ANTI-TUMOR” (SHANGHAI INSTITUTE OF MATERIA MEDICA, CHINESE ACADEMY OF …, priority 2021, published 2024).

Legend:
[1] = tested on: CD4+T cells, CD8+T cells, NK cells, macrophages; assay: Immune cell deletion analysis of conjugate efficacy; assay type: in vivo, Balb/c mice
Source text: Balb/c mice were randomized into 6 groups of 6 mouse each. Corresponding groups are: MFC group, Nb16-SZU-101 group, Nb16-SZU-101+anti-CD4 group, Nb16-SZU-101+anti-CD8 group, Nb16-SZU-101+anti-NK1.1 group, Nb16-SZU-101+chlorophosphate liposome group. The administration of the mFc and Nb16-SZU-101 was consistent with example 8.1.
The immune cell deletion method comprised: deleting corresponding immune cells (CD4+T cells, CD8+T cells, NK cells) by intraperitoneal injection of antibody drugs (anti-CD4, anti-CD8, anti-NK1.1) respectively in Day 3 (200 ug/one)/Day 4 (100 ug/one)/Day 5 (100 ug/one), or intraperitoneal injection of chlorophosphate-liposomes to remove macrophages.
On Day 14 the mice would be euthanized.

[2] = tested on: tumor immune microenvironment (CT26 subcutaneous tumors); assay: Tumor immunotyping analysis by flow cytometry after conjugate administration; assay type: in vivo, BALB/c mouse; settings: compared to mFc group
Method: At a mouse anatomical endpoint of example 8.1, subcutaneous tumors were taken, 150 mg of tumor tissue was taken and cut into meat paste, and the meat paste was oscillated and digested at 180 rpm for 1.5 h at 37° C. in hyaluronidase and collagenase IV, and processed into a single cell suspension. The pretreated cell suspension was divided into two parts, one part was used for immunotyping analysis of macrophages and dendritic cells, and one part was used for immune typing analysis of T cells and NK cells.
The suspension treatment of macrophages and dendritic cell samples: the cells were treated with 2-4 mL sterile red blood cell lysis solution for 8 min and terminated with PBS buffer solution to remove red blood cells and fragments in the sample suspension; the cell sample was cleaned for use.
T cell and NK cell sample suspension treatment: the cells were centrifuged with lymphocyte separation liquid to obtain a lymphocyte separation layer, that is, the lymphocyte separation layer was a tumor lymphocyte suspension, and wascleaned for use.
The macrophages and dendritic cell samples and T cells and NK cell samples were sealed at 4° C. with an Fc receptor confining liquid for 1 hour, and non-specific staining caused by the Fc receptor was removed; cell surface protein staining is performed, specifically: M1 macrophages (FITC Rat Anti-Mouse CD45, PE-Cyanine7 Rat Anti-Mouse F4/80 and APC Rat anti-Mouse CD86), M2 macrophages (FITC RATw Anti-Mouse CD45 and PE-Cynine 7 RAT Anti-Mouse F4/80), dendritic cells (PE-Cy7 Anti-Mouse CD11c, BB515 Rat Anti-Mouse I-A/I-E, PE Hamster Anti-Mouse CD80, and APC Rat anti-Mouse CD86), CD4+T cells and CD8+T cells (FITC Hamster Anti-Mouse CD3e, PerCP-Cy™ 5.5 Rat Anti-Mouse CD4 and APC Rat Anti-Mouse CD8a), Treg cells (FITC Hamster Anti-Mouse CD3e, PerCP-CYy™ 5.5 Rat Anti-Mouse CD4 and PE Rat Anti-Mouse CD25), NK cells (CD3-FITC, CD49b-APC, CD69-PE), followed by dyeing on ice for 20 min.; then intracellular protein staining is performed, and after the cell is subjected to a fixed membrane rupture treatment, the cell is subjected to membrane rupture dyeing, specifically: M2 macrophages (MS CD206 Alexa 647 and ANTI-MOUSE LAP PE), functional T cells(ANTI-MOUSE GRANZYME B (NGZB) PE) containing granzyme, functional T cells (PE Rat Anti-Mouse IFN-γ) containing IFN-γ, Treg cells (ANTI-MOUSE/RAT FOXP3 APC), and then stained for 20 min on ice; after cleaning, re-suspending the sample cell sap, and performing on-machine detection on the flow cytometer.

B1: Nb16-SZU-101: PD-L1 and TLR7 dual-targeting nanobody coupling drug, Nb16 coupled with SZU-101-NHS active ester (conjugate)
chain: QVQLQESGGGSVQAGGSLRLSCAASGYTDRNYWMGWFRQAPGKEREGVAALYTRTGSTYYADSVKGRFTISHDNAKNTLYLQMNSLKPEDTAVYYCAADSNAYGLAPLHHYWGQGTQVTVSS
modifications: left off: a dimerising Fc or GST
For B1, the “Effect of deletion of CD4+T cells and macrophages on efficacy” value ([1]; anti-CD4 or chlorophosphate liposomes intraperitoneal) was “little influence on the efficacy”, the “Effect of deletion of CD8+T cells and NK cells on efficacy” value ([1]; anti-CD8 or anti-NK1.1 intraperitoneal) was “greatly affects the efficacy” and the “Expression of granzyme B and IFN-γ in tumor-infiltrating cytotoxic cells” value [2] was “promote the expression”. The “Function of tumor-infiltrating cytotoxic cells (CD8+T cells and NK cells)” value [2] was “significantly increases”, the “Infiltration of IFN-γ+CD4+T cells” value [2] was “significantly increased” and the “Infiltration of TGF-β+macrophages” value [2] was “reduce the infiltration”. For the same molecule, the “Macrophage expression of PD-L1 in tumor microenvironment” value [2] was “promotes macrophage expression of PD-L1”, the “Re-polarization of tumor-associated macrophages” value [2] was “promote the re-polarization” and the “Maturation of dendritic cells” value ([2]; tumors of example 8.1) was “promotes maturation of dendritic cells”.
